The values that follow come from doi:10.1101/865998 (bioRxiv, 2019).

Series [1] concerns the target TM24 peptide expressed as a EYFP fusion in COS cells. Put plainly: FRAP.
Series [2] deals with the molecule itself. Put plainly: SDS-PAGE without cross-linker.
Series [3] deals with the molecule itself. Put plainly: native gel or EMSA.
Series [4] deals with the molecule itself. The series is described as follows: FRAP.

Values joined by “and” are separate entries in the source; they are usually repeats but may differ in a detail not shown here. Identical values can stand only once. No end group written: not given here.

In series [1], “TM24 peptide expressed as a EYFP fusion in COS cells (domain or fragment)” displayed a stoichiometry N of 7. As to KKVGLLAFLGLLFCLGVAMFTYKK [TM24 peptide (20 residues of the CX3CL1 TM domain with 2 lysines added at each end)], in series [2], the “stoichiometry N” value worked out at 2.

B1: CX3CL1-EYFP fusion protein (L929 cells stably expressing CX3CL1, L_(CX3CL1)) (natural protein)
chain: QHHGVTKCNITCSKMTSKIPVALLIHYQQNQASCGKRAIILETRQHRLFCADPKEQWVKDAMQHLDRQAAALTRNGGTFEKQIGEVKPRTTPAAGGMDESVVLEPEATGESSSLEPTPSSQEAQRALGTSPELPTGVTGSSGTRLPPTPKAQDGGPVGTELFRVPPVSTAATWQSSAPHQPGPSLWAEAKTSEAPSTQDPSTQASTASSPAPEENAPSEGQRVWGQGQSPRPENSLEREEMGPVPAHTDAFQDWGPGSMAHVSVVPVSSEGTPSREPVASGSWTPKAEEPIHATMDPQRLGVLITPVPDAQAATRRQAVGLLAFLGLLFCLGVAMFTYQSLQGCPRKMAGEMAEGLRYIPRSCGSNSYVLVPV
With B1, the “stoichiometry N” value in series [3] is ~3 and 5 and ≥ 3. For KKVGLLAFLGLLFCLGVAMFTYKK (also: FITC conjugated, position not given here) [TM24-FITC], in series [4], the binding result is reported as “binds”.
